{"source": "the DeepSol protein solubility set", "data": [{"assay": "soluble on expression in E. coli; label from the status in PepcDB or PDB records", "values": [{"sequence": "MRGSHHHHHHGSSEPLILDAPNADACIIWLHGLGADRTDFKPVAEALQMVLPSTRFILPQAPSQAVTVNGGWVMPSWYDILAFSPARAIDEDQLNASADQVIALIDEQRAKGIAAERIILAGFSQGGAVVLHTAFRRYAQPLGGVLALSTYAPTFDDLALDERHKRIPVLHLHGSQDDVVDPALGRAAHDALQAQGVEVGWHDYPMGHEVSLEEIHDIGAWLRKRL", "soluble on expression in E. coli": "soluble"}, {"sequence": "MRGSHHHHHHTDPALRADLSLLKALSEADAIASSEQEVRQILLEEADRLQKEVRFDGLGSVLIRLNESTGPKVMICAHMDEVGFMVRSISREGAIDVLPVGNVRMAARQLQPVRITTREECKIPGLLDGDRQGNDVSAMRVDIGARSYDEVMQAGIRPGDRVTFDTTFQVLPHQRVMGKAFDDRLGCYLLVTLLRELHDAELPAEVWLVASSSEEVGLRGGQTATRAVSPDVAIVLDTACWAKNFDYGAANHRQIGNGPMLVLSDKSLIAPPKLTAWVETVAAEIGVPLQADMFSNGGTDGGAVHLTGTGVPTVVMGPATRHGHCAASIADCRDILQMQQLLSALIQRLTRETVVQLTDFRGLCGR", "soluble on expression in E. coli": "soluble"}, {"sequence": "MRGSHHHHHHTDPALRALGLKQVHHIAIIATDYAVSKAFYCDILGFTLQSEVYREARDSWKGDLALNGQYVIELFSFPFPPERPSRPEACGLRHLAFSVDDIDAAVAHLESHNVKCETIRVDPYTQKRFTFFNDPDGLPLELYEQGLCGR", "soluble on expression in E. coli": "soluble"}, {"sequence": "MRGSHHHHHHTDPALRATQKNFVELRNVTKRFGSNTVIDNINLTIPQGQMVTLLGPSGCGKTTILRLVAGLEKPSEGQIFIDGEDVTHRSIQQRDICMVFQSYALFPHMSLGENVGYGLKMLGVPRAELKARVKEALAMVDLEGFEDRFVDQISGGQQQRVALARALILKPKVLLFDEPLSNLDANLRRSMRDKIRELQKQFDITSLYVTHDQSEAFAVSDTVLVMNKGHIMQIGSPQDLYRQPASRFMASFMGDANLFPATFSDGYVDIYGYHLPRPLHFGTQGEGMVGVRPEAITLSDRGEESQRCVIRHVAYMGPQYEVTVEWHGQEILLQVNATRLQPDVGEQYYLEIHPYGMFVLADAAGLCGR", "soluble on expression in E. coli": "soluble"}, {"sequence": "MRHLPTTDIQSTLRRGKSVEQFMGRSPASRNHIRHIELRPSNNLVEVWVYDVEDQGNEEWLDLYDFNELEKGEADLPAATFVDADAAIAYAQEALSANPSRWVNLGIAQSEYLDYIRSGRPDRWPAAA", "soluble on expression in E. coli": "not soluble"}, {"sequence": "MRHRVKKKHFDRTKEQRLALYRSLARALIFDERIETTVERAKALRSFIEPLVELAKEGTLHARRQALSRLPDKPAIKKLFEDIAPRFEGRNGGYVRIIKLPYRRRGDGAEMAIIEWVELEHHHHHH", "soluble on expression in E. coli": "not soluble"}, {"sequence": "MRHVISVLVQDHPRVLNRITGLFARRGFNLESLAVGTTHQPGLSRICLVVSGDDRTLEQVEKQLNRLIEVLKVTDHTEPHVERELCLVKVHVAGLEERLAVKDIQEAFRARVVDVAQKSLILELTGDTQKVNSFIEALRPYGILEVMRTGAVAMSRGDRVLKVREKKEAV", "soluble on expression in E. coli": "soluble"}, {"sequence": "MRIDILTLFPGMFSGVLNESILKKAQEKGAVDIRLIDFREFADNKHKTVDDYPYGGGAGMVLKPQPIFDAVEHVTAGSPGARIILLCPQGERYTQKKAEELAKETHLVLICGHYEGYDERIRQYLATDEISIGDYILTGGELGAMVIVDSVVRLLPGVLGNEASPVDDSFSSGLLEYPQYTRPADFRGMKVPDILLSGNHQLIAEWREKESLRRTFLRRPDLLDEYPLTDKQKQWLKEWEKERE", "soluble on expression in E. coli": "not soluble"}, {"sequence": "MRILAFPYTHTLSHLSRVLAVALELRRMGHEVVFAGESAKVSFVSQQGFDVVPIHEPDPEMLFGNIRSGKLRFVEDAELLQMLTADIEVIRSLKPDLVLSDGRFSAPLSTHLTNVRHAAIVNASSTEYRALPYVPFFDWMPPWLISRDAMIWKALVRLNLFLEMKLFDNVMKVFKRLSRELNTNRTVTATNCLTGKDITLLADIPEYFPSRNLPASYHYVGPLTWKSVLAPPAWWPLDIPSSPLVYVTMGTTGVSEFFSKLGPSLSTSFFSSIVTTGGQSSELKPMPGKVYVESYLDGDLVMERSDVVICHGGNGTIYQALSHGKPVIGIPTIPDQKFNMRRVEAMGFGKSLDLKQFLEKPSLLADTVKQVLSDHSFRNSAQKIQAVLKSYNAATTSAKILIDSILLEHHHHHH", "soluble on expression in E. coli": "not soluble"}, {"sequence": "MRILFSLFFFISLSLLAQPLSLSLKNAPTAEILSYLAEENMKNIVLSDQIDKNTTLRIENSHFDEIVESIVRANQLSKRKEKQIYFIGHLKEDKAIEKIDNGDKPKLITQTIKLDYAKASEVIESLTKGKGNGNVLSEQGYLYFDERSNSLIIKDSPDSMKHILALIKNLDKPTEQIAIEARIVTISSQDLQELGVRWGMFSPSDDYHKVASSLETKGLTTANHLNVNFPVNNATSLALQVARINSRVLDLELTALEQENNVEIIASPRLLTTNKKPASIKQGAEIPYVLYNRKDEVKNIEFKEAVLGLQVTPHISADNQILLDLVVTQNSPNLNNTAVNGLITIDKQELNTQVFAKHGETIVLGGIFQHLTAKGEDRVPLLGSIPVLKKLFSHSTDKITKRELVIFVTPYLVQDKYKKLEHHHHHH", "soluble on expression in E. coli": "not soluble"}, {"sequence": "MRILYFDCFAGASGDMILGALLDLGIDVGIFKRELAGLNLDGFDIAVEKKVINSIAVTDVNVIVKEECNHHTGHHHHCERNLADIEKIIDESSLKDNVKRLSKKIFSEIARAEAKVHNKSIEDVHFHEVGAIDSIVDIVGTAICLDLLKVDKIYSSPMHDGTGFIECQHGKLPVPVPAVLEMLKESNIPYITEDVNTELLTPTGLGIIKCVASKFGPMPPMTIEKVGYGAGKRQTGRFNALRCILGNAKEKEKIDDEICMLETNIDDMNPEILGYVMNRLFENGALDVFYTPVYMKKNRPGVLLTVLTDKEHEEKLVDIILTETTTLGIRKTTAQRYVLEREIKHVNTEFGKIRVKESSFGDYKKYSPEFEDCKKVAQELKIPLSKVYDAVNKAILVFEERNENALQ", "soluble on expression in E. coli": "soluble"}, {"sequence": "MRIVYCISGTCNSGGMERVLSNKANYLAAHGYEVTIVTTDQRGRRPFFALDGRIECVDLDVNYETNNGKSFFNKLVHYPFKQLKHKRRLTKVLNLIKPDITVSMFCNDVAFLPSIQDGSKKVLEVHFSRFKRLQYDRKGLWRLADKWRNRNEQRQVACFDKFVVLTHEDKDYWEGHANIEVIPNAQTFACDVPAALESKTVVAVGRYTYQKGFDMLLRAWRRVCDSIDDWQLHIVGEGEMKESLQQQILDLSLEDRVELCPATSDIQSVYREASVLVLSSRYEGFGMVLLEAQTAGVPTVSFDCKCGPSDIVADGVTGYLVPANDIPALAEKLLVLMRDETLRKQMGRNAFADASRFSEKAVMQRWTDLFENFR", "soluble on expression in E. coli": "not soluble"}, {"sequence": "MRKNILITGVHGYIGNALKDKLIEQGHQVDQINVRNQLWKSTSFKDYDVLIHTAALVHNNSPQARLSDYMQVNMLLTKQLAQKAKAEDVKQFIFMSTMAVYGKEGHVGKSDQVDTQTPMNPTTNYGISKKFAEQALQELISDSFKVAIVRPPMIYGAHCPGNFQRLMQLSKRLPIIPNINNQRSALYIKHLTAFIDQLISLEVTGVYHPQDSFYFDTSSVMYEIRRQSHRKTVLINMPSMLNKYFNKLSVFRKLFGNLIYSNTLYENNNALEIIPGKMSLVIADIMDETTTKDKA", "soluble on expression in E. coli": "not soluble"}, {"sequence": "MRKSDREAFLSSVLGNEQPPAHLARTVIEEKLRNAIIDGSLPSGTALRQQELATLFGVSRMPVREALRQLEAQSLLRVETHKGAVVAPLITEDAVDAYALRILLESEALRLSIPLLDADDLAAAASYIEQLEVETDFGQIGRLNRMFHLSLYAKTHNKRLMRLVEEGLNEEERFLRFNLSSMGLGKLSQDDHWQLLRLAEQKAVEPCVEALQYHLNRGVQAVTQYLQSQKAGNVKPARTKKNTPA", "soluble on expression in E. coli": "soluble"}, {"sequence": "MRKVLVFLKNSKKAFETFKRVERVLKDLNLSYKKFINRKELFKVLKPKDYELFLVIGGDGTFLSAARIASRFGVPLVGVNEGRFGFLTEIKKEEIKKVLPLVLEGRAKLQERLMIDVYLRSRNRLRYLGNYLNDAVISKSSIARIIRTKVFINGEEVLEVFGDGVILSTPTGSTAYALSAGGPIVYPESQNLLFVPICPHTLSNRPLVLPSKFEVKFKVVSENMEAFLTLDGQEGFHLKKGDEVIVKRSRYVCRMYSHPRKSFFGILKEKLRWG", "soluble on expression in E. coli": "soluble"}, {"sequence": "MRKVPIITADEAAKLIKDGDTVTTSGFVGNAIPEALDRAVEKRFLETGEPKNITYVYCGSQGNRDGRGAEHFAHEGLLKRYIAGHWATVPALGKMAMENKMEAYNVSQGALCHLFRDIASHKPGVFTKVGIGTFIDPRNGGGKVNDITKEDIVELVEIKGQEYLFYPAFPIHVALIRGTYADESGNITFEKEVAPLEGTSVCQAVKNSGGIVVVQVERVVKAGTLDPRHVKVPGIYVDYVVVADPEDHQQSLDCEYDPALSGEHRRPEVVGEPLPLSAKKVIGRRGAIELEKDVAVNLGVGAPEYVASVADEEGIVDFMTLTAESGAIGGVPAGGVRFGASYNADALIDQGYQFDYYDGGGLDLCYLGLAECDEKGNINVSRFGPRIAGCGGFINITQNTPKVFFCGTFTAGGLKVKIEDGKVIIVQEGKQKKFLKAVEQITFNGDVALANKQQVTYITERCVFLLKEDGLHLSEIAPGIDLQTQILDVMDFAPIIDRDANGQIKLMDAALFAEGLMGLKEMKS", "soluble on expression in E. coli": "soluble"}, {"sequence": "MRLFIAEKPSLARAIADVLPKPHRKGDGFIECGNGQVVTWCIGHLLEQAQPDAYDSRYARWNLADLPIVPEKWQLQPRPSVTKQLNVIKRFLHEASEIVHAGDPDREGQLLVDEVLDYLQLAPEKRQQVQRCLINDLNPQAVERAIDRLRSNSEFVPLCVSALARARADWLYGINMTRAYTILGRNAGYQGVLSVGRVQTPVLGLVVRRDEEIENFVAKDFFEVKAHIVTPADERFTAIWQPSEACEPYQDEEGRLLHRPLAEHVVNRISGQPAIVTSYNDKRESESAPLPFSLSALQIEAAKRFGLSAQNVLDICQKLYETHKLITYPRSDCRYLPEEHFAGRHAVMNAISVHAPDLLPQPVVDPDIRNRCWDDKKVDAHHAIIPTARSSAINLTENEAKVYNLIARQYLMQFCPDAVFRKCVIELDIAKGKFVAKARFLAEAGWRTLLGSKERDEENDGTPLPVVAKGDELLCEKGEVVERQTQPPRHFTDATLLSAMTGIARFVQDKDLKKILRATDGLGTEATRAGIIELLFKRGFLTKKGRYIHSTDAGKALFHSLPEMATRPDMTAHWESVLTQISEKQCRYQDFMQPLVGTLYQLIDQAKRTPVRQFRGIVAPGSGGSADKKKAAPRKRSAKKSPPADEVGSGAIAHHHHHH", "soluble on expression in E. coli": "soluble"}, {"sequence": "MRLHIGGREKHPDWKIFDALERPEVNFVGNAADLSQFADDSIEAIYASHVLEHFHHSLGNELVSVLLEWRRVLLPNGKLYISVPDLQTLSWLFLSPMAGFQHRLQIMRMMFGGQVDQYDVHKVGFDCEILFTYLQAAKFSDYERVENFELFQDCSNLVFLGYPISLNVVAVKLEHHHHHH", "soluble on expression in E. coli": "not soluble"}, {"sequence": "MRLIAAGEAQNAQQADEDVVQRNIQANRGTNIVRFTAMNDVAGFKQNSARGDQNEDRADRQMQGRQLQEDISNHTNQHHHNTRHQHTAKERHIFAGGQHIRRAAEEHQRRSAQCHSDYVTHSSRQVGVQNWSEDISQKTGKGECGDNPGRLIRRFVGQEHQTIHTHQRQNQTRRWQHQHRTGSCGNRRKGQRQAQQKIGITQHLMGAKQRCTVM", "soluble on expression in E. coli": "soluble"}]}]}
